# Reference: publication PMC7954794, “Protein context shapes the specificity of SH3 domain-mediated interactions in vivo” (Nature Communications, 2021)
# Tested on: PPIs identified as affected by the SH3 domain deletions
# Test: Liquid DHFR-PCA low-throughput validation of PPIs affected by SH3 deletion (Fig. S1D-E)
# Assay type: cell-based, Saccharomyces cerevisiae
# Details: label = prey, liquid DHFR-PCA, prey _1 = lost, _2 = gained in screen
# Method in brief: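 Yeast diploids from DHFR-PCA mating grown 48 h in synthetic complete MSG medium pH 6.0 with NAT and HPH, normalized to 1 OD and diluted to 0.1 OD in liquid PCA selection medium. Growth followed by OD every 15 min for 72 h at 30 °C.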
Molecule,Ratio (Deletedscore / WTscore) (bait BOI1),Ratio (Deletedscore / WTscore) (bait BZZ1-2),Ratio (Deletedscore / WTscore) (bait LSB3),other results
"YAR042W_2 (protein, UniProt P35845 1-1188, looked up) Oxysterol-binding protein …: MEQPDLSSVAISKPLLKLKLLDALRQGSFPNLQDLLKKQFQPLDDPNVQQVLHLMLHYAVQVAPMAVIKEIVHHWVSTTNTTFLNIHLDLNERDSNGNTPLHIAAYQSRGDIVAFLLDQPTINDCVLNNSHLQAIEMCKNLNIAQMMQVKRSTYVAETAQEFRTAFNNRDFGHLESILSSPRNAELLDINGMDPETGDTVLHEFVKKRDVIMCRWLLEHGADPFKRDRKGKLPIELVRKVNENDTATNTKIAIDIELKKLLERATREQSVIDVTNNNLHEAPTYKGYLKKWTNFAQGYKLRWFILSSDGKLSYYIDQADTKNACRGSLNMSSCSLHLDSSEKLKFEIIGGNNGVIRWHLKGNHPIETNRWVWAIQGAIRYAKDREILLHNGPYSPSLALSHGLSSKVSNKENLHATSKRLTKSPHLSKSTLTQNDHDNDDDSTNNNNNKSNNDYDDNNNNNNNDDDDYDDDDESRPLIEPLPLISSRSQSLSEITPGPHSRKSTVSSTRAADIPSDDEGYSEDDSDDDGNSSYTMENGGENDGDEDLNAIYGPYIQKLHMLQRSISIELASLNELLQDKQQHDEYWNTVNTSIETVSEFFDKLNRLTSQREKRMIAQMTKQRDVNNVWIQSVKDLEMELVDKDEKLVALDKERKNLKKMLQKKLNNQPQVETEANEESDDANSMIKGSQESTNTLEEIVKFIEATKESDEDSDADEFFDAEEAASDKKANDSEDLTTNKETPANAKPQEEAPEDESLIVISSPQVEKKNQLLKEGSFVGYEDPVRTKLALDEDNRPKIGLWSVLKSMVGQDLTKLTLPVSFNEPTSLLQRVSEDIEYSHILDQAATFEDSSLRMLYVAAFTASMYASTTNRVSKPFNPLLGETFEYARTDGQYRFFTEQVSHHPPISATWTESPKWDFYGECNVDSSFNGRTFAVQHLGLWYITIRPDHNISVPEETYSWKKPNNTVIGILMGKPQVDNSGDVKVTNHTTGDYCMLHYKAHGWTSAGAYEVRGEVFNKDDKKLWVLGGHWNDSIYGKKVTARGGELTLDRIKTANSATGGPKLDGSKFLIWKANERPSVPFNLTSFALTLNALPPHLIPYLAPTDSRLRPDQRAMENGEYDKAAAEKHRVEVKQRAAKKEREQKGEEYRPKWFVQEEHPVTKSLYWKFNGEYWNKRKNHDFKDCADIF",,,,Ratio (Deletedscore / WTscore) (bait ABP1): 1.203
"YDR379W_2 (protein, UniProt Q06407 1-1009, looked up) Rho-type GTPase-activating …: MSADPINDQSSLCVRCNKSIASSQVYELESKKWHDQCFTCYKCDKKLNADSDFLVLDIGTLICYDCSDKCTNCGDKIDDTAIILPSSNEAYCSNCFRCCRCSNRIKNLKYAKTKRGLCCMDCHEKLLRKKQLLLENQTKNSSKEDFPIKLPERSVKRPLSPTRINGKSDVSTNNTAISKNLVSSNEDQQLTPQVLVSQERDESSLNDNNDNDNSKDREETSSHARTVSIDDILNSTLEHDSNSIEEQSLVDNEDYINKMGEDVTYRLLKPQRANRDSIVVKDPRIPNSNSNANRFFSIYDKEETDKDDTDNKENEIIVNTPRNSTDKITSPLNSPMAVQMNEEVEPPHGLALTLSEATKENNKSSQGIQTSTSKSMNHVSPITRTDTVEMKTSTSSSTLRLSDNGSFSRPQTADNLLPHKKVAPSPNKKLSRSFSLKSKNFVHNLKSKTSEMLDPKHPHHSTSIQESDTHSGWGVSSTHTNIRKSKAKKNPVSRGQSDSTIYNTLPQHGNFTVPEFNHKKAQSSLGSISKKQNSNDTATNRRINGSFTSSSSGHHIAMFRTPPLESGPLFKRPSLSSESAHHRSSSLQTSRSTNALLEDDSTKVDATDESATSLEKDFYFTELTLRKLKLDVRELEGTKKKLLQDVENLRLAKERLLNDVDNLTREKDKQSASSRESLEQKENIATSITVKSPSSNSDRKGSISNASPKPRFWKIFSSAKDHQVGDLESQQRSPNSSSGGTTNIAQKEISSPKLIRVHDELPSPGKVPLSPSPKRLDYTPDGSHLYGSSLQARCAYEKSTVPIIIRCCIDRIEKDDIGLNMEGLYRKSGSQTLVEEIENEFAQNNSLHSDTLSPKLNALLNQDIHAVASVLKRYLRKLPDPVLSFSIYDALIDLVRNNQLIERLPLNNDKFLDSPQKVTIYEMVLKSLLEIFKILPVEHQEVLKVLAAHIGKVRRCSERNLMNLHNLSLVFAPSLIHDFDGEKDIVDMKERNYIVEFILGNYRDIFKQA",0.9152,,,
"YCR002C_2 (protein, UniProt P25342 1-322, looked up) Cell division control protein …: MDPLSSVQPASYVGFDTITNQIEHRLLKKGFQFNIMVVGQSGLGKSTLINTLFASHLIDSATGDDISALPVTKTTEMKISTHTLVEDRVRLNINVIDTPGFGDFIDNSKAWEPIVKYIKEQHSQYLRKELTAQRERFITDTRVHAILYFLQPNGKELSRLDVEALKRLTEIANVIPVIGKSDTLTLDERTEFRELIQNEFEKYNFKIYPYDSEELTDEELELNRSVRSIIPFAVVGSENEIEINGETFRGRKTRWSAINVEDINQCDFVYLREFLIRTHLQDLIETTSYIHYEGFRARQLIALKENANSRSSAHMSSNAIQR",,1.169,1.096,Ratio (Deletedscore / WTscore) (bait HOF1): 0.2463
"YKR048C_2 (protein, UniProt P25293 1-417, looked up) Nucleosome assembly protein: MSDPIRTKPKSSMQIDNAPTPHNTPASVLNPSYLKNGNPVRAQAQEQDDKIGTINEEDILANQPLLLQSIQDRLGSLVGQDSGYVGGLPKNVKEKLLSLKTLQSELFEVEKEFQVEMFELENKFLQKYKPIWEQRSRIISGQEQPKPEQIAKGQEIVESLNETELLVDEEEKAQNDSEEEQVKGIPSFWLTALENLPIVCDTITDRDAEVLEYLQDIGLEYLTDGRPGFKLLFRFDSSANPFFTNDILCKTYFYQKELGYSGDFIYDHAEGCEISWKDNAHNVTVDLEMRKQRNKTTKQVRTIEKITPIESFFNFFDPPKIQNEDQDEELEEDLEERLALDYSIGEQLKDKLIPRAVDWFTGAALEFEFEEDEEEADEDEDEEEDDDHGLEDDDGESAEEQDDFAGRPEQAPECKQS",,,1.174,Ratio (Deletedscore / WTscore) (bait BOI2): 1.065
"YKL051W_2 (protein, UniProt P35735 1-353, looked up) Protein SFK1: MIQFKSPGNWLFIVPWIAFIPWYGMLIAMLICWASQGHPIYWFMHSEQFPVYISDIGATNLRPLFISCAGWQGLGYVITVALEFFQRSGYLPFQLKKKDPSISDSTSYAEKLHSGKYLMPPYYTKDERNLIFAAFVLGSIGELALLFSSIFSTALYHRVHIAMVSVFVVFMFLSTCCLIAEYFLMGRHYASVHPLASPHFNPQSSEKSFNQDYNTVDELPWYKWKGHVWNKFTISATLKVIWLTLAVVWAICFGAINDRSKSACFEWLLAFWFGIIFMILSADFYLGGRYRQSRYFNHVESFSGYYKYDKALGLYHSEDVLPSDDNAGVIATETASSNIYNNSSSNESIQVVV",0.8707,1.125,1.525,
"YGR281W_2 (protein, UniProt P53049 1-1477, looked up) Oligomycin resistance …: MTITVGDAVSETELENKSQNVVLSPKASASSDISTDVDKDTSSSWDDKSLLPTGEYIVDRNKPQTYLNSDDIEKVTESDIFPQKRLFSFLHSKKIPEVPQTDDERKIYPLFHTNIISNMFFWWVLPILRVGYKRTIQPNDLFKMDPRMSIETLYDDFEKNMIYYFEKTRKKYRKRHPEATEEEVMENAKLPKHTVLRALLFTFKKQYFMSIVFAILANCTSGFNPMITKRLIEFVEEKAIFHSMHVNKGIGYAIGACLMMFVNGLTFNHFFHTSQLTGVQAKSILTKAAMKKMFNASNYARHCFPNGKVTSFVTTDLARIEFALSFQPFLAGFPAILAICIVLLIVNLGPIALVGIGIFFGGFFISLFAFKLILGFRIAANIFTDARVTMMREVLNNIKMIKYYTWEDAYEKNIQDIRTKEISKVRKMQLSRNFLIAMAMSLPSIASLVTFLAMYKVNKGGRQPGNIFASLSLFQVLSLQMFFLPIAIGTGIDMIIGLGRLQSLLEAPEDDPNQMIEMKPSPGFDPKLALKMTHCSFEWEDYELNDAIEEAKGEAKDEGKKNKKKRKDTWGKPSASTNKAKRLDNMLKDRDGPEDLEKTSFRGFKDLNFDIKKGEFIMITGPIGTGKSSLLNAMAGSMRKTDGKVEVNGDLLMCGYPWIQNASVRDNIIFGSPFNKEKYDEVVRVCSLKADLDILPAGDMTEIGERGITLSGGQKARINLARSVYKKKDIYLFDDVLSAVDSRVGKHIMDECLTGMLANKTRILATHQLSLIERASRVIVLGTDGQVDIGTVDELKARNQTLINLLQFSSQNSEKEDEEQEAVVAGELGQLKYESEVKELTELKKKATEMSQTANSGKIVADGHTSSKEERAVNSISLKIYREYIKAAVGKWGFIALPLYAILVVGTTFCSLFSSVWLSYWTENKFKNRPPSFYMGLYSFFVFAAFIFMNGQFTILCAMGIMASKWLNLRAVKRILHTPMSYIDTTPLGRILNRFTKDTDSLDNELTESLRLMTSQFANIVGVCVMCIVYLPWFAIAIPFLLVIFVLIADHYQSSGREIKRLEAVQRSFVYNNLNEVLGGMDTIKAYRSQERFLAKSDFLINKMNEAGYLVVVLQRWVGIFLDMVAIAFALIITLLCVTRAFPISAASVGVLLTYVLQLPGLLNTILRAMTQTENDMNSAERLVTYATELPLEASYRKPEMTPPESWPSMGEIIFENVDFAYRPGLPIVLKNLNLNIKSGEKIGICGRTGAGKSTIMSALYRLNELTAGKILIDNVDISQLGLFDLRRKLAIIPQDPVLFRGTIRKNLDPFNERTDDELWDALVRGGAIAKDDLPEVKLQKPDENGTHGKMHKFHLDQAVEEEGSNFSLGERQLLALTRALVRQSKILILDEATSSVDYETDGKIQTRIVEEFGDCTILCIAHRLKTIVNYDRILVLEKGEVAEFDTPWTLFSQEDSIFRSMCSRSGIVENDFENRS",0.9762,1.357,1.455,
"YBL039C_2 (protein, UniProt P28274 1-579, looked up) CTP synthase 1: MKYVVVSGGVISGIGKGVLASSTGMLMKTLGLKVTSIKIDPYMNIDAGTMSPLEHGECFVLDDGGETDLDLGNYERYLGVTLTKDHNITTGKIYSHVIAKERKGDYLGKTVQIVPHLTNAIQDWIERVAKIPVDDTGMEPDVCIIELGGTVGDIESAPFVEALRQFQFKVGKENFALIHVSLVPVIHGEQKTKPTQAAIKGLRSLGLVPDMIACRCSETLDKPTIDKIAMFCHVGPEQVVNVHDVNSTYHVPLLLLEQKMIDYLHARLKLDEISLTEEEKQRGLELLSKWKATTGNFDESMETVKIALVGKYTNLKDSYLSVIKALEHSSMKCRRKLDIKWVEATDLEPEAQESNKTKFHEAWNMVSTADGILIPGGFGVRGTEGMVLAARWARENHIPFLGVCLGLQIATIEFTRSVLGRKDSHSAEFYPDIDEKNHVVVFMPEIDKETMGGSMRLGLRPTFFQNETEWSQIKKLYGDVSEVHERHRHRYEINPKMVDELENNGLIFVGKDDTGKRCEILELKNHPYYIATQYHPEYTSKVLDPSKPFLGLVAASAGILQDVIEGKYDLEAGENKFNF",,1.633,1.147,Ratio (Deletedscore / WTscore) (bait HSE1): 1.248
